Results on 33 sequences are retold here after the NTF2 design screens of Basanta et al. (2020).

A short description of this series: protease stability score; higher = more stable; yeast display proteolysis, trypsin and chymotrypsin.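 Also: relative to predicted unfolded state with 0 unfolded-like and 1 meaning tenfold more protease.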
Consider “SDLDQEMKTWLEETIRLLNTGNEEEWTKLADPNARVEIGDKHYHGWESLEELRKIFGVEKIDYRFTRIEVQGEKADSDVRIEVNGRELHVRLIIVVVNGRHKSMRVIFG”, for which the protease stability score came to 1.99.
Under “SDLDRLLEEMAKRFVEVMLTGDEEIMKELIDPNARVDWDGVEIHGWKEISEWLKEEIERQENYRYEFEFRDLDVIGNKAVFFTDLHFNINGRRIRTHSVYKVNVVNGKVKHVHVEIR” stands 1.21; under “SDLEDEFREFLEEWIKHWLTGDEETLFHLADPHAQIDINGREHHGMDEWMHILLKHLKELGARIEIRIEDIRVQGEKTEVDGNLILHINGRRKELKVELIVRVVNGRLKSIEIRIH”, 1.02; under “SDLEEEALNLAREWMHNWVTGNEEREEELLDPNVRSDINGRHFHGRERISRMIRYLLDEIRVHDVKEHDMEIQGEKVRIDGRIDGEVNGKRKILVMHFHIVVIDGVIHSVEVRIE”, 1.18.
In the case of “SDLEEEINRFLTELLRDWETGNWKAFADLLDPHTRVLIDGKEHHGREIFLEHNHQLGIKHREFELKKFRIFENRVEFDGTLHLVYGDKRVHREIHIIILKIDGRWKITEIRFL” it was 1.54.
Under “SDLEERSKSALHHLEEVLRTGDEDESRLMLDPNVRSVYDGREFHGRELVTELLSAFLKHLRIRDVKVERVEMNENEVRWDMKIDGTVGDKRYETHVHIIVVKVNGRWFLKEVRFG” stands 1.39; under “SDLEEVIRKHIEELEESRRTGDEESLWRLLDPNTLKVVGDKRIHGMEAVAEIETFHDRRVKNATDRLNLREVHTQGDKLTIRGELILDWDGVKINVHVRLEILKFDGRWIIHRIEVK”, 0.715; under “SDLEKETEELTRLFLENLVTGDEKTARELIDPHAMTDIGDFHIHGRDRTFRHIEELWRHWGVDRIRIHHDHIDIQGNKSYIEGTIHINGQSRKVHLIIIVFNGRIDKVRMHIR”, 1.36.
Sequence “SDLEKLAEHTAKEIIHYWLTGDWKSLTELADPHVKLDIDINGRREHHHGWERVIEFFDRFRKRIDHHHIHIDSIDIQGDKVHIDGKLHVHQGDKDLTIKMTIIVIVVDGRIKSLRVIIL” displayed a protease stability score of 2.13.
Under “SDLEMEMKRWMELWLRMFVTGDFRTFLHLADPEYKVSAEGVSSHGRDFHIKELLRWLKEIRIHDFHVKDMDVQGDKAHSDGRHNGIVDGRNRDVNVHNEIVTIDGRLRSVTIRLE” stands 0.534.
In the case of “SDLERDAREAFEHYVNLMRTGNEHIVEHLIDPDVKIEIGDKQVVGREEVLKLFHHLVKHLRWHDTKLHHVHYQGDKMLLDMRLDGTIDGRRLDTRVIWFILKIDGVWFIKYQHYH” it was 1.81; in that of “SDLERHISEVFKDIIEMEETGDEEELDKLADPNVRIDIDGVELIGRESLRRWVESVVDQIKGIKKHIVIRHLRVFNGRADSDGELRIHINGKTIVRKVRIHITVVNGRLKEMQFRTE”, 1.19.
Under “SDLHHIVDNLLQEWLHARLTGDEDRLLELMDPDAREDVNGRTLVGREDSWKIMLELRFRVEHWHIHRLEIQGDKIDMDIEFDVRFDVDGVPYRLRTRQKIHIDVYNGKIQRLQVHIL” stands 0.325; under “SDLHRDIQRLLEQVLRSRETGDEDHLEKYADPHARSVFDGVEFHGWEELLRVIRHIRIRRLRLTHIEVQGDKVELDLELDGEINGQRVRVHLEIHSEKINGRWIMTEVVIE”, 1.21; under “SDLNQVFRESLEHHLHALETGDWRELYRLADPNVLVIVGDKEIHGMEEWSRILEEEMRRVKGMRIEINPTDIDFQGNKVRAHTRLHVEVDGRSVETDTEHESKKVNGRWILKRLTIR”, 1.16.
In the case of “SDLREEVKEFLKLLVEAFETGDEEALHELMDPNTRFRYGDKDLIGMKILERWWHELFRHLGVDRFRIELRVHHVTIINGQMHNDGTLIIRQGDKEERFKINLVIEKIDGRWIIHMVIFE”, the protease stability score turned out to be 0.893.
Under “SDMDEMISRFRREVEHSMQTGDERFDHEMADPHARFWINGVLFHGRHALEMWKEELGVDNFKIRHIHIRDEKIQGNKITLDVEYHLLVNGQQVDLRVILIYRKVNGKWTLEEERLV” stands 0.851; under “SDQDHLTELAEHLFEYSLETGDEELMDKNFDPNMKLEVGEKHEHGRHVAETFSRRFDVVKSIEMKHVTTINGVAEIDGHIDGNFNGVDIRTDVRLVSLKIDGRWFIHSITFV”, 0.319.
With “SDRRELLERLAELFLHWWLTGDWKAISDNADPNVRLDIQQGDKHIHDIGRERTEEVLRKIFERFKNLKIEIKRFDMQGDKLHVDSRVTFDGVEFNMEIHNLVVDGRIREIYVHLH”, the protease stability score came to 1.54.
The sequence “SDSDHDLEHLLELLMRAYETGNEEEIRRLVDPNARWDINGVELHGWKVMHKFLREMRPTRIRIIIDDSETIGDKMFVDGTIRLDVHIGDKLIHTERRSRLVHRKVDGKWTQTSVIID” showed a protease stability score of 0.68.
In the case of “SDSEESSKVALELFKESVETGDERVSQELADPNYRVHYGDKTLHGREAWIRVILEMRWRTVTFKHLDFQGDKVRIEGEILGEYNGVETNFSTTLNVLKINGQWFLHSVHIQ” it was 1.49.
In the case of “SDSEKVSREAWELMLRDHETGDEEAFQNNVDPHTRIHINGVDYHGWRDFVDLMRELRIEHVTLRDYRVIGNKMHIHGQVHGEIDGRRINMHVTIIARKINGRWILEHSIFV” it was 1.97; in that of “SDTEHDARRVIEELSKALLTGDWRRIEELLDPNTRWVFNGQEFHGMEIVIKVLIHLRRHMTHVEFHDIHTIDGRVHSDTEFDVSLIINGKTERTRVHVEFIIRKVNGRWRIEEVRFE”, 2.25.
In the case of “SDVDDMAHKMATLLIDLLETGDWREIRKFADPNVRIEIGDKEYHGMDYHLKHFRDLGWELHLRVERIDVVNGRILIHQEVELRFDGRHDHRKHTLIIEKIDGKWRFNEMIIS” it was 1.09; in that of “SDVDEKMETFLTLLFELIYTGDEEVIEKLFDPNVQLDVNGQIYHGMENVIEFVHQVKRHIRWKTVQIRHYRTQGEWAYSQVEVTGTVNGQSHRFEIHIDIWVINGKLKHIKKDIE”, 2.01; in that of “SDVEEMLHRIARLIVHNLFTGDWEDLVRMMDPHARYIVNGKESVGWRRVTEMLRRHHEELRIREIRIRHIEVYNGKAELHLEVNEEVNGREVSLDTRLHVLTINGVIRSIHIEVE”, 0.719.
“SDVLESTKSFLRFFVHAMITGNEEELSRNLDPNVRLLFNGVNYHGMEELVRLLIELGIKIHEWHTHDLKFQGEKLYYLGRRDGEVNGRRSEEEVEFIIFKFNGRWFLHEMRIH” displayed a protease stability score of 0.627.
In the case of “SDWDEWTKRMLDILIEALETGDEEVLSRLIDPNMRLDINGQEFHGREVILRHLITEIQRADHVEFRIEDRDLIDGRVYMEVEKIIHINGVEFRHHVLIIIEKVDGRWYINSVHVR” it was 2.46; in that of “SDWDKITKEMAELILTAEETGDFKTLWRLMDPNVKLNIGDKTHHGREEYLKWMHEHLKKVPNLTLKLRDVHVQGDKVHLRVEVEIGDKTIDSEIHLEIINGRIEHLRIIDL”, 0.957.
In the case of “SDWEDLVRMAFHHFIHSMRTGDEDIIHQLLDPEVKINVGDKVIHGREQAFDYIHTLVNRADHIRFRLDHLDVQGDFIEIRTTVDLTYGDKHHRMEVTFFSRKVDGVWLIERVQIK” it was 1.27; in that of “SDWNEFLIEVAELLLRWLSTGDEESFHRYVDPRVRLEFNGKELHGREELARFLRHLRWILDHLEFTSREDQGEKFRVEGKSHGHLFFENHFERHDLKNDLNLILVNGRIKEISLRLE”, 1.42; in that of “SDYEKEVLDYAHTFLHAFLTGNEFILLKLLDPHVRIEIHFDGVDFLRHGRETFSKRAVDHIREWRVEIRLHDLHVVDGVVHLNTRLHVDYGDKHIHITQHITLFVINGRMKTVHIRHE”, 1.26.
In the case of “SDYERLFTIAVQLVIDVIQTGNFRELERLLDPNVRVDINGQEFVGREELVHWMHKVIRRADHLEITLRDVELQGDKLVLDMELVERYDGKEYRTRIRVFAHKINGQWYIRTFEVR” it was 1.51.
